Assay results taken from patent US20090221008A1 (Human Genome Sciences, published 2009).

Columns and labels:
[1] = molecular target: T1, membrane-bound form of Neutrokine-alpha (human, UniProt Q9Y275 1-285); assay: summary of Example 10
T1 construct: Endogenous type II membrane protein on THP-1 cells, monocytes and myeloid cell lines; also called Neutrokine-alpha on the surface of THP-1 cells; cell surface Neutrokine-alpha

[2] = molecular target: T2, soluble form of Neutrokine-alpha (amino acids 134 to 285 of SEQ ID NO:2) (human, UniProt Q9Y275 134-285); assay: summary of Example 10
T2 construct: also called rNeutrokine-alpha; soluble Neutrokine-alpha

[3] = molecular target: T3, peptide comprising amino acid residues Val-227 to Asn-242 of SEQ ID NO:2 (human); assay: epitope mapping with peptides
T3 peptide: VTLFRCIQNMPETLPN

Measured: binding result

T1 sequence (Q9Y275 whole entry): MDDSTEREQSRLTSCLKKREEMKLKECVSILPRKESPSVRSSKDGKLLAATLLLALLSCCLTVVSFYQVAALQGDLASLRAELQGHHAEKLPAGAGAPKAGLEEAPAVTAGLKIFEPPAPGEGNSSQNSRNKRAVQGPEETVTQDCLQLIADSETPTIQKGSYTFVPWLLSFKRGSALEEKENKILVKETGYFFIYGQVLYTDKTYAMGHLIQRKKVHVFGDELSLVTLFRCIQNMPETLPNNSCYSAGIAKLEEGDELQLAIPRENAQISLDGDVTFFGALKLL
T2 sequence (Q9Y275 134-285): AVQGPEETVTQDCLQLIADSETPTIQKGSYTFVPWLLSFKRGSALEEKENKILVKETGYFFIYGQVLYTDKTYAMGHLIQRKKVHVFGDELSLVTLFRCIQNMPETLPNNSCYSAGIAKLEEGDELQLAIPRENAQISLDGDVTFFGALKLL

B1: 15C10 (antibody, human IgG1, V domains shown)
VH: QVQLQQSGAELARPGASVKMSCRASGYTFTTYTMHWVKQRPGQGLEWIGYIIPRNTYTTFNQKFKNKATLTADKSSNTAYMQLSSLTSEDSAVYYCARHYGGGYWFFDVWGAGTTVTVSS
VL: ELVMTQTPASLAVSLGQRATISCRGSESVDSYGNSFMHWYQQKPGQPPKLLIYRASNLESGIPARFSGSGSRTDFTLTIYPVEADDVATYYCQQSNDDPMYTFGGGTKLEIKR
notes: Murine monoclonal antibody; hybridoma ATCC PTA-1158; A chimeric form with human IgG1/kappa was deposited as ATCC PTA-3794; also called anti-Neutrokine-alpha antibody 15C10
binds: all assays above
